# Data from patent publication US20190211099A1, “METHODS AND COMPOSITIONS FOR TREATING CANCER WITH SIGLEC-9 ACTIVITY MODULATORS” (KING'S COLLEGE LONDON, priority 2016, published 2019).
# Key:
# [1] = system: monocyte derived macrophages; experiment: Factors secreted by monocyte derived macrophages treated with MUC1-ST (ELISA); assay type: cell-based, human
# Protocol: ELISAs for IL-6, IL-12p70, TGF-β1, PAI-1, M-CSF, EGF, SHP2, phospho-SHP2 (Biotechne) were all carried out as per manufacturer's instructions.
# Secreted proteins from monocyte derived macrophages were assayed by ELISA as described in Example 2. […] All of these factors are associated with tumor progression (Duffy et al. (2014) BREAST CANCER RES. 16: 428; Jensen et al. (2002) CLIN. CANCER RES. 9:4423-4434). […] It has been discovered that MUC1-ST/Siglec-9 ‘educated’ monocytes and macrophages have a unique secretome.
# Siglec-9 [2] = biological target: T1, Siglec-9 (Homo sapiens, UniProt Q9Y336); experiment: Phosphorylation of Siglec-9 (ELISA, phospho immunoreceptor array); assay type: cell-based; settings: monocytes and macrophages; antibody cross-linked
# Protocol: To determine the intracellular effects of MUC1-ST binding to Siglec-9, the ability of MUC1-ST to induce phosphorylation of the immunoreceptor tyrosine-based inhibitory motif (ITIM) of Siglec-9 thereby inducing intracellular inhibitory signals (Avril et al. (2004) J. IMMUNOL. 173: 6841-6849) was assessed. Without wishing to be bound by theory, it was hypothesized that this was likely occur as the repeated glycans found on MUC1 could be able to crosslink this lectin. To investigate the effects of MUC1-ST on Siglec-9 phosphorylation, monocytes or differentiated M-CSF macrophages were treated with MUC1-ST or cross-linked anti-Siglec-9 antibody at 4° C. for 4 hours or 30 minutes, respectively, and were then brought to 37° C. for 15 minutes, and lysed in the presence of pervanadate. Lysates were assessed for the phosphorylation of Siglec-9 using an ELISA or a 59 phospho immunoreceptor array (Bio-Techne) according to the manufacturer's instructions. For the ELISA, anti-human Siglec-9 was plated overnight (O/N) on plastic before being blocked with 1% BSA in PBS. Clarified supernatant was added and incubated for 2 hours. After incubation with 1 μg/mL biotinylated anti phospho-tyrosine, O.D. at 450 nm was measured after the addition of streptavidin-HRP and substrate.
# Siglec-9 [3] = biological target: T1, Siglec-9; experiment: Binding of biotinylated MUC1-ST to primary monocytes and monocyte-derived macrophages (flow cytometry), with or without blocking antibody; assay type: cell-based; set-up: endogenous in cells; host or cells: THP-1 and U937 cells; settings: primary monocytes, monocyte-derived macrophages and AML lines
# Protocol: Both the cell phenotype staining and neutralization studies described in the Examples were performed using the following antibodies (all anti-human): Siglec-9 (Biotechne; 191240), Siglec-9 FITC (Biotechne; 191240), Siglec-3 (Biotechne; 6C5/2), Siglec-7 (Biotechne; AF1138), Siglec-3 FITC (BD; P67.6), Siglec-7 PE (Biolegend; 6-434), Siglec-10 PE (Biolegend; 5G6), Siglec-1 (abcam; 7D2), HLA-DR FITC (Beckman Coulter; IM0463U), CD16 FITC (Biolegend; B73.1), CD14 FITC (BD 555397), CD69 PE (Beckman Coulter; IM1943), CD25 FITC (ABX228FITC), CD86 PE (Beckman Coulter; IM2729U), CD40 FITC (BD 555588), CD83 PE (Beckman Coulter; IM2218), CD163 PE (Biolegend; GHI/61), CXCR1 FITC (BD Pharmongen; 551126), CD45 PC5 (Beckman Coulter; IM2653U), CD206 PE (ebioscience; 19.2), PD-L1 PE (Biolegend; 29E.2A3), CD36 (Santa Cruz; H-300), TGFbetaRII (Bio-Techne; AF-241), IL-6Rα (Tocilizumab; Roche. A generous gift from Dr. Valerie Corrigall). Cells were suspended in PBS+0.5% BSA (2×10^5 cells/100 μL/sample) and incubated with Abs according to the manufacturer's instructions. At least 1×10^4 events were evaluated using either Epics XL, (Beckman Coulter) or FACSCalibur (BD Biosciences) flow cytometers. […]
# To investigate the interaction of MUC1-ST with cells of the immune system, immune cell subsets were obtained as follows. […] Purity was assessed at >95% by staining with relevant antibodies. […]
# T1 sequence (Q9Y336 18-463): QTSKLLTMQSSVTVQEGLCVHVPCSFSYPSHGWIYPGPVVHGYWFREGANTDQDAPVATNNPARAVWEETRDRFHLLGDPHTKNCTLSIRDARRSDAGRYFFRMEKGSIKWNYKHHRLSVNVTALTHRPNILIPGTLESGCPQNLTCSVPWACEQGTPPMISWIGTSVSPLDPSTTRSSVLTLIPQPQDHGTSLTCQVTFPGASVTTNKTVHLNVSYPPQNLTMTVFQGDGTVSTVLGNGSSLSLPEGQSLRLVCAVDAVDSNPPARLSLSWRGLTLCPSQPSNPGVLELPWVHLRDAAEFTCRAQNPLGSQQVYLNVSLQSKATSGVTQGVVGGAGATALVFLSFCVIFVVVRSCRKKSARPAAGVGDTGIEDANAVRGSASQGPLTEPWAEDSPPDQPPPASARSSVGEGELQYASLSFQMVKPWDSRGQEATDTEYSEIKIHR
substance,measurement,setting,value
"NeuAcα2,3Galβ1-3GalNAc linked via a Ser/Thr of MUC1 [MUC1-ST]","secretion of M-CSF, PAI-1, chitinase 3-like-1 and EGF",[1],increased secretion
same,phosphorylation of Siglec-9,Siglec-9 [2],inhibited
same,binding to cells,Siglec-9 [3],found to bind
